Laboratory results: patent publication US11400139B2, “Anti-NET compounds for treating and preventing fibrosis and for facilitating wound healing” (THE CHILDREN'S MEDICAL CENTER CORPORATION, priority 2015, dated 2022)
Entries after “also recorded” stand apart in the source; their conditions may differ.

B1: DNase 1: DNase 1 (dornase alfa, Genentech), which disrupts NETs (protein, UniProt P24855 23-282, looked up)
Deoxyribonuclease-1: LKIAAFNIQTFGETKMSNATLVSYIVQILSRYDIALVQEVRDSHLTAVGKLLDNLNQDAPDTYHYVVSEPLGRNSYKERYLFVYRPDQVSAVDSYYYDDGCEPCGNDTFNREPAIVRFFSRFTEVREFAIVPLHAAPGDAVAEIDALYDVYLDVQEKWGLEDVMLMGDFNAGCSYVRPSQWSSIRLWTSPTFQWLIPDSADTTATPTHCAYDRIVVAGMLLRGAVVPDSALPFNFQAAYGLSDQLAQAISDHYPVEVMLK

Columns and labels:
[1] = system: neutrophil extracellular traps; details: Subramanian et al.; cited from earlier work
PAD4 expressing cells = details: Subramanian et al.; cited from earlier work
NETs [2] = details: pre-digestion of NETs with DNase 1, in vitro (Farrera and Fadeel); cited from earlier work
NETs [3] = assay: Full-thickness excisional skin wound healing with systemic DNase 1 treatment; format: in vivo, mouse
Protocol: Mice were induced to be diabetic using multiple low dose injections of streptozotocin (STZ). Six to 8-week old male C57BL/6 or PAD4^−/− mice were randomized into treatment groups of either vehicle or STZ according to their blood glucose levels and body weight at baseline. Mice were fasted for 5 hours and then injected with vehicle or STZ (i.p., 50 mg/kg per day, pH 4, dissolved in 0.1 M sodium citrate buffer) for 5 consecutive days. Fed blood glucose level was measured starting 1 week afterwards. Mice with fed blood glucose level above 300 mg/dL were considered diabetic and used for further experiments. Pancreatic islets were stained for insulin using a rabbit polyclonal anti-insulin antibody (1:500, Cell Signaling, Cat. no. 4590).
Full-thickness excisional wounds were made on the dorsal skin under aseptic conditions as described^22. Mice were anesthetized with ketamine and xylazine (100 mg/kg and 10 mg/kg, respectively, i.p.). Hair was removed and the skin was cleaned with 70% ethanol and betadine. A fold of the dorsal skin was then picked up along the midline, placed over dental wax and punched through with a 4-mm disposable sterile biopsy punch (Miltex) such that 2 wounds were generated in one punch. The procedure was repeated, thus 4 wounds were made per mouse. The mice were housed individually after wounding. In experiments involving diabetic mice, all mice were provided ad libitum with antibiotics (2.5% Sulfatrim) in drinking water. Wounds were digitally photographed using a Sony Camcorder and total wound areas were calculated using ImageJ software. Wound area was expressed as a percentage compared to the area on day 0 when the wounds were made.
Neutrophil recruitment and re-epithelialization were examined in H&E-stained sections. Wounds were cut in half, fixed overnight in zinc fixative and embedded in paraffin. The tissue was sectioned at 10 μm and stained with H&E. Images were acquired with the Zeiss Axiovision software using an Axioplan light microscope coupled to a color Zeiss HRc camera.
Normoglycemic and diabetic WT mice, randomized by blood glucose levels before assigning to treatments, were injected with 10 μg i.v. and 50 μg i.p. DNase 1 (dornase alfa, Genentech) 30 min before wounding and then 50 μg i.p. every 12 hours until wound collection on day 3. Control mice were injected with vehicle (8.77 mg/mL sodium chloride and 0.15 mg/mL calcium chloride)^40.

[4] = normoglycemic WT mice, three days post wounding

| Molecule | formation of neutrophil extracellular traps [1] | cell killing (PAD4 expressing cells) | clearance of NETs by macrophages (NETs [2]) | enhancement of re-epithelialization (NETs [3]; STZ-induced diabetic WT mice on antibiotics, day 3 post wounding) [%] | promotion of wound area reduction (NETs [3]; STZ-induced diabetic WT mice on antibiotics, day 3 post wounding, 10 μg i.v. and 50 μg i.p. before wounding, then 50 μg i.p. every 12 hours) [%] | wound healing (wound area reduction and re-epithelialization), in words (NETs [3]; WT mice, diabetic and normoglycemic) | further benefit in wound healing (NETs [3]; diabetic PAD4−/− mice, day 3 post wounding) | enhancement of re-epithelialization (NETs [3]; [4]) [%] | neutrophil recruitment to the wound (NETs [3]; [4]) | wound area versus vehicle (NETs [3]; [4]) |
| --- | --- | --- | --- | --- | --- | --- | --- | --- | --- | --- |
| CC(C)(C)n1nnc([C@H](CCCNC(=N)CCl)NC(=O)c2ccc(-c3ccccc3)cc2)n1 [BTT-Cl-amidine, biphenyl tetrazole tert-butyl Cl-amidine] | blocks the formation | enhanced cell killing | – | – | – | – | – | – | – | – |
| B1 | – | – | accelerated their clearance | > 75 | > 20 | accelerated wound healing; also recorded: facilitated wound area reduction | did not provide further benefits; also recorded: did not provide additional benefits | ~54 | not affected | smaller than in those treated with vehicle |
